Measurements taken from patent US20080014635A1.

Assays:
[1] = biological target: mutant clone 6 (TNFrED H23P + S46I)-agglutinin fusion displayed on yeast (human); assay: saturation binding of [125I]TNF-α to yeast displaying mutant clone 6, best-fit values box; axis 'Bound' has no unit [B]
[2] = biological target: mutant clone 11 (TNFrED S76P)-agglutinin fusion displayed on yeast (human); assay: saturation binding of [125I]TNF-α to yeast displaying mutant clone 11, best-fit values box; axis 'Bound' has no unit [C]
[3] = biological target: wild-type TNFrED-agglutinin fusion displayed on the surface of S. cerevisiae BJ2168 (human); assay: saturation binding of [125I]TNF-α to yeast displaying wild-type TNFrED, best-fit values box; axis 'Bound' has no unit [A]
[4] = biological target: wild-type TNFrED-agglutinin fusion displayed on the surface of S. cerevisiae BJ2168 (human); assay: flow cytometry of yeast, biotinylated hTNF-α detected with FITC-avidin (FL1-H); vector-only pYES2 yeast in the left panel: Left Half= 98.58% [B]
[5] = biological target: mutant clone 6 (TNFrED H23P + S46I)-agglutinin fusion displayed on yeast (human); assay: saturation binding of [125I]TNF-α to yeast displaying mutant clone 6, best-fit values box; the box prints no unit, the concentration axis is TNF-α [nM] [B]
[6] = biological target: wild-type TNFrED-agglutinin fusion displayed on the surface of S. cerevisiae BJ2168 (human); assay: saturation binding of [125I]TNF-α to yeast displaying wild-type TNFrED, best-fit values box; the box prints no unit, the concentration axis is TNF-α [nM] [A]
[7] = biological target: wild-type TNFrED-agglutinin fusion displayed on the surface of S. cerevisiae BJ2168 (human); assay: flow cytometry of yeast, biotinylated hTNF-α detected with FITC-avidin (FL1-H); gate line at FL1-H just below 10^1; vector-only pYES2 yeast in the left panel: Right Half= 1.42% [B]

Sequence of wild-type TNFrED-agglutinin fusion displayed on the surface of S. cerevisiae BJ2168 (human) (P20840 other isoform, or with tags, fused parts or gaps, form in doubt): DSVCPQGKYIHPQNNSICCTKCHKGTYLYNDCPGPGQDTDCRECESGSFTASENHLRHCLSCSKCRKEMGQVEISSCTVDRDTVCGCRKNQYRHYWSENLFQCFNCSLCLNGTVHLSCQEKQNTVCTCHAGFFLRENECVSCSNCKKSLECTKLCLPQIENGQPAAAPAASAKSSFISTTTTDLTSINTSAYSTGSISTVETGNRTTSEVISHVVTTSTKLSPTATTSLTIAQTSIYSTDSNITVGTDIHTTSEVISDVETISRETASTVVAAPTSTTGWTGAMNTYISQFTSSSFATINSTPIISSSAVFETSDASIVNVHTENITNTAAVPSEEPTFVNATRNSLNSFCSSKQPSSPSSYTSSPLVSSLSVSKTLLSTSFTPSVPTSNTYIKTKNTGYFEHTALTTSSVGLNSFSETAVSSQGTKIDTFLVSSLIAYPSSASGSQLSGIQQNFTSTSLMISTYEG
Sequence of mutant clone 6 (TNFrED H23P + S46I)-agglutinin fusion displayed on yeast (human) (P20840 other isoform, or with tags, fused parts or gaps H23P S46I H23P S46I, form in doubt): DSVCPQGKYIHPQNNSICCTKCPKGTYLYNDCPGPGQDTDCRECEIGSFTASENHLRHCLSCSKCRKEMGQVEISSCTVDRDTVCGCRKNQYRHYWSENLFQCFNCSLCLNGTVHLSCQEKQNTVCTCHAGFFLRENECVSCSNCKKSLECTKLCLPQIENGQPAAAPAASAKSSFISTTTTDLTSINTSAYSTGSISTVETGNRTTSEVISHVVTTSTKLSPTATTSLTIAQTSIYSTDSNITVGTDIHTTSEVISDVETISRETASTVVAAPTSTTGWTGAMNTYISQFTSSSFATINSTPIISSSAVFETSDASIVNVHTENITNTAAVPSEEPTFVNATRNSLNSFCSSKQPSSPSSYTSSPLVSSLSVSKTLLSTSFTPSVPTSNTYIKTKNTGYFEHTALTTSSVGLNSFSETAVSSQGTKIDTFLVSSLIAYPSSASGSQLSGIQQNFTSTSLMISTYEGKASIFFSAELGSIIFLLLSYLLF
Sequence of mutant clone 11 (TNFrED S76P)-agglutinin fusion displayed on yeast (human) (P20840 other isoform, or with tags, fused parts or gaps S76P S76P, form in doubt): as the sequence (P20840 other isoform, or with tags, fused parts or gaps H23P S46I H23P S46I, form in doubt) above, with P23H, I46S, S76P counted along it

- BMAX [1]: 0.334
- BMAX [2]: 0.127
- BMAX [3]: 0.0645
- Left Half (percent of yeast cells left of the FL1-H gate) [4]: 89.1%
- Kd [5]: 1.71 nM
- Kd [6]: 2.04 nM
- Right Half (percent of yeast cells right of the FL1-H gate) [7]: 10.9%
Substance: human TNF-α (hTNF-α) (from UniProt P01375 77-233) (ligand)
